T1: wheat germ agglutinin (WGA) (Triticum vulgare, UniProt P10968 P10968:27-197)
T1 sequence: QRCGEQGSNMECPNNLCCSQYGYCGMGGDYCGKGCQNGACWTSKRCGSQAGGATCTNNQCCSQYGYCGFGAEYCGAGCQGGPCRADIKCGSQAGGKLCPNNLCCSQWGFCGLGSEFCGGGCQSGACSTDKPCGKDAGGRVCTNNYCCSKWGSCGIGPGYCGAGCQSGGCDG

T2: E-selectin (ES-Rg) (Homo sapiens, UniProt P16581 P16581:22-556)
T2 chain: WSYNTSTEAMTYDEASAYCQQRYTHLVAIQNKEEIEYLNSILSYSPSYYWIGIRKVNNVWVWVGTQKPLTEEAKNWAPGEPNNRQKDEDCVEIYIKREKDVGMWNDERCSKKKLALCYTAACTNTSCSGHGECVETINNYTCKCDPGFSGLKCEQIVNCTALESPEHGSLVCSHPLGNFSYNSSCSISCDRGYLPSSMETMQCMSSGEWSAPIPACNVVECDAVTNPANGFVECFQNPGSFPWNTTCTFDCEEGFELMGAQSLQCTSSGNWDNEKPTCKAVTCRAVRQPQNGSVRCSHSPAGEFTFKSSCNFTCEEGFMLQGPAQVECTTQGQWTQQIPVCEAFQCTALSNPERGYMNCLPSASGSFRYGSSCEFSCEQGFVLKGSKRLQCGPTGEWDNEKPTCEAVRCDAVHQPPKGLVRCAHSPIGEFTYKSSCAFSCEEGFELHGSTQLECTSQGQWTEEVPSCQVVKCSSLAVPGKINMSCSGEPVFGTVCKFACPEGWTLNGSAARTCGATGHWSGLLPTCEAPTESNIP

T3: P-selectin (PS-Rg) (Homo sapiens, UniProt P16109 P16109:42-321)
T3 chain: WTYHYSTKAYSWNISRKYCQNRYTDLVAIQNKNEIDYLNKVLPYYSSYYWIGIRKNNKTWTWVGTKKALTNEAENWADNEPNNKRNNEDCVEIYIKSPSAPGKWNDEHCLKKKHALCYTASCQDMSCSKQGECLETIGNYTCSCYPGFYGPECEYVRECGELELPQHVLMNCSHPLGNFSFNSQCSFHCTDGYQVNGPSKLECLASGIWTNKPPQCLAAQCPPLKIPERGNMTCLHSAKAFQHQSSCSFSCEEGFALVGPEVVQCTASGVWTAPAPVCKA

B1: 11.29 (ssRNA)
RNA: GGGAAAAGCGAAUCAUACACAAGAACUGAGUAAGGUCUGGCGUGGCAUUAGGUUAGUGGGAGGCUUGGAGUAGGCUCCGCCAGAGACCAACCGAGAA
modifications: 2'-NH2 all C and U
B2: 6.3 (ssRNA)
RNA: GGGAAAAGCGAAUCAUACACAAGAGAUACAGCGCGGGUCUAAAGACCUUGCCCCUAGGAUGCAACGGGGUGGCUCCGCCAGAGACCAACCGAGAA
modifications: 2'-NH2 all C and U
B3: 11.2 (ssRNA)
RNA: GGGAAAAGCGAAUCAUACACAAGACCAACGUACAUCGCGAGCUGGUGGAGAGUUCAUGAGGGUGUUACGGGGUGCUCCGCCAGAGACCAACCGAGAA
modifications: 2'-NH2 all C and U
B4: 6.19 (ssRNA)
RNA: GGGAAAAGCGAAUCAUACACAAGAAUCGAACCUAGGGAUGCAACGGUGAAGGUUGUGAGGAUUCGCCAUUAGGCGCUCCGCCAGAGACCAACCGAGAA
modifications: 2'-NH2 all C and U
B5: 6.5 (ssRNA)
RNA: GGGAAAAGCGAAUCAUACACAAGAGUCCCUAGGGAUGCAACGGGCAGCAUUCGCAUAGGAGUAAUCGGAGGUCGCUCCGCCAGAGACCAACCGAGAA
modifications: 2'-NH2 all C and U
B6: 6.27 (ssRNA)
RNA: GGGAAAAGCGAAUCAUACACAAGAUGCCGGUGGAAAGGCGGGUAGGUGACCCGAGGAUUCCUACCAAGCCAUGCUCCGCCAGAGACCAACCGAGAA
modifications: 2'-NH2 all C and U
B7: 6.23 (ssRNA)
RNA: GGGAAAAGCGAAUCAUACACAAGACUCGGCGGGAAUCGAAAGUGUACUGAAUUAGAACGGUGGGCCUGCUCAUCGUGCUCCGCCAGAGACCAACCGAGAA
modifications: 2'-NH2 all C and U
B8: 11.5 (ssRNA)
RNA: GGGAAAAGCGAAUCAUACACAAGAACAAGGAUCGAUGGCGAGCCGGGGAGGGCUCGGCGGGAACGAAAUCUGCUCCGCCAGAGACCAACCGAGAA
modifications: 2'-NH2 all C and U
B9: 11.4 (ssRNA)
RNA: GGGAAAAGCGAAUCAUACACAAGACAGGCACUGAAAACUCGGCGGGAACGAAAGUAGUGCCGACUCAGACGCGUGCUCCGCCAGAGACCAACCGAGAA
modifications: 2'-NH2 all C and U
B10: 11.19 (ssRNA)
RNA: GGGAAAAGCGAAUCAUACACAAGAAAGGGAUGGGAUUGGGACGAGCGGCCAAGACUCGGCGGGAACGAAGGGUGCUCCGCCAGAGACCAACCGAGAA
modifications: 2'-NH2 all C and U
B11: 11.12 (ssRNA)
RNA: GGGAAAAGCGAAUCAUACACAAGACGGCUGUGUGUGGUAGCGUCAUAGUAGGAGUCGUCACGAACCAAGGCGCUCCGCCAGAGACCAACCGAGAA
modifications: 2'-NH2 all C and U
B12: 11.8 (ssRNA)
RNA: GGGAAAAGCGAAUCAUACACAAGAAUGGUUGGCCUGGGCGCAGGCUUCGAAGACUCGGCGGGAACGGGAAUGGCUCCGCCAGAGACCAACCGAGAA
modifications: 2'-NH2 all C and U
B13: 11.34 (ssRNA)
RNA: GGGAAAAGCGAAUCAUACACAAGACUCGGCGGGAACGUGAAGUGGGUAGGUAGCUGAAGACGGUCUGGGCGCCAGCUCCGCCAGAGACCAACCGAGAA
modifications: 2'-NH2 all C and U
B14: 11.6 (ssRNA)
RNA: GGGAAAAGCGAAUCAUACACAAGACUGGGGAGCAGGAUAUGAGAUGUGCGGGGCAAUGGAGUCGUGACGAACCGCUCCGCCAGAGACCAACCGAGAA
modifications: 2'-NH2 all C and U
B15: 6.9 (ssRNA)
RNA: GGGAAAAGCGAAUCAUACACAAGACUCGGCGGGAACGAAGUGUGUGAGUAACGAUCACUUGGUACUAAAAGCCCGCUCCGCCAGAGACCAACCGAGAA
modifications: 2'-NH2 all C and U
B16: 11.32 (ssRNA)
RNA: GGGAAAAGCGAAUCAUACACAAGACGUGCGGAGCAAAUAGGGGAUCAUGGAGUCGUACGAACCGUUAUCGCGCUCCGCCAGAGACCAACCGAGAA
modifications: 2'-NH2 all C and U
B17: 11.26 (ssRNA)
RNA: GGGAAAAGCGAAUCAUACACAAGAUUGGGCAGGCAGAGCGAGACCGGGGGCUCGGCGGGAACGGAACAGGAAUGCUCCGCCAGAGACCAACCGAGAA
modifications: 2'-NH2 all C and U
B18: 11.15 (ssRNA)
RNA: GGGAAAAGCGAAUCAUACACAAGACUCGGCGGGAACGAAAGUGUCAUGGUAGCAAGUCCAAUGGUGGACUCUGCUCCGCCAGAGACCAACCGAGAA
modifications: 2'-NH2 all C and U
B19: 11.27 (ssRNA)
RNA: GGGAAAAGCGAAUCAUACACAAGACGAUGCGAGGCAAGAAAUGGAGUCGUUACGAACCCUCUUGCAGUGCGCGGCUCCGCCAGAGACCAACCGAGAA
modifications: 2'-NH2 all C and U
B20: 11.28 (ssRNA)
RNA: GGGAAAAGCGAAUCAUACACAAGAGUUGGUGCGAGCUGGGGCGGCGAGAAGGUAGGCGGUCCGAGUGUUCGAAUGCUCCGCCAGAGACCAACCGAGAA
modifications: 2'-NH2 all C and U
B21: 233 (ssDNA)
DNA: CTACCTACGATCTGACTAGCCACGACAGAGAACAAGGCGTTAGACGTTATCCGACCACGGCTTACTCTCATGTAGTTCC

The first series addresses T1, wheat germ agglutinin (WGA). Description: filter; HBSS, room temp. Particulars: tags: free lectin, E Y Laboratories; label: 32P. As for the experimental part: (§1) The specifically eluted fraction was processed for use in the following round. Fractions eluted from immobilized WGA were heated at 90° C. for 5 minutes in 1% SDS, 2% β-mercaptoethanol and extracted with phenol/chloroform. RNA was reverse transcribed into cDNA by AMV reverse transcriptase at 48° C. for 60 min in 50 mM Tris-Cl pH (8.3), 60 mM NaCl, 6 mM Mg(OAc)_2, 10 mM DTT, 100 pmol DNA primer, 0.4 mM each of dNTPs, and 0.4 unit/µl AMV RT. […] C) Nitrocellulose Filter Partitioning As described in SELEX Patent Applications, the nitrocellulose filter partitioning method was used to determine the affinity of RNA ligands for WGA and for other proteins. Filter discs (nitrocellulose/cellulose acetate mixed matrix, 0.45 µm pore size, Millipore; or pure nitrocellulose, 0.45 µm pore size, Bio-Rad) were placed on a vacuum manifold and washed with 4 ml of HBSS buffer under vacuum. Reaction mixtures, containing ^32P labeled RNA pools and unlabeled WGA, were incubated in HBSS for 10 min at room temperature, filtered, and then immediately washed with 4 ml HBSS. The filters were air-dried and counted in a Beckman LS6500 liquid scintillation counter without fluor. WGA is a homodimer, molecular weight 43.2 kD, with 4 GlcNAc binding sites per dimer. For affinity calculations, we assume one RNA ligand binding site per monomer (two per dimer). The monomer concentration is defined as 2 times the dimer concentration. The equilibrium dissociation constant, K_d, for an RNA pool or specific ligand that binds monophasically is given by the equation $$K_d=[P_f][R_f]/[RP]$$
The dissociation constants for representative members of families 1–9 and orphan ligands were determined by nitrocellulose filter binding experiments and are listed in Table III. These calculations assume one RNA ligand binding site per WGA monomer.
B1 displayed a Kd of 32 nM.

For the molecule B2, the Kd came out at 120 nM.

B3 had a Kd of 62 nM.

B4 displayed a Kd of 74 nM.

Regarding B5, the affinity, expressed as Kd, was 678 nM.

On to B6, for which the Kd came to 56 nM.

The same series, now with this note: tags: free lectin, E Y Laboratories; label: 32P; hairpin.
Molecule B7 had a dissociation constant (Kd) of 824 nM.

For B8, binding was characterised by a dissociation constant (Kd) of 44 nM.

B9 displayed a Kd of 32 nM.

B10 returned a dissociation constant Kd of 22 nM.

As for B11, the equilibrium dissociation constant (Kd) amounted to 15.2 nM.

B12 returned a Kd of 9.2 nM.

The molecule B13 showed a Kd of 92 nM.

The molecule B14 displayed an equilibrium dissociation constant (Kd) of 702 nM.

B15: the equilibrium dissociation constant (Kd) amounted to 396 nM.

In turn, B16 displayed a Kd of 274 nM.

On to B17, for which the Kd is 38 nM.

On to B18, for which the affinity, expressed as Kd, was 54 nM.

The molecule B19 displayed a Kd of 30 nM.

Still in this series, the particulars now being: tags: free lectin, E Y Laboratories; label: 32P; possible G-quartet (speculative).
For the molecule B20, the affinity, expressed as Kd, was 9.2 nM.

A further series addresses T2, E-selectin (ES-Rg). Description: filter; room temp, Ca/Mg buffer. The following applies: tags: extracellular domain fused to human IgG1 Fc (provided by A. Varki); chain copies: 2 (dimeric Fc chimera, inferred). As for the experimental part: as §1, with “RNA” for “The specifically eluted fraction was processed for use in the following round. Fractions eluted from immobilized WGA were heated at 90° C. for 5 minutes in 1% SDS, 2% β-mercaptoethanol and extracted with phenol/chloroform. RNA”
(§2) The affinity of representative cloned ligands for LS-Rg, ES-Rg, PS-Rg, CD22β-Rg and WGA was determined by nitrocellulose partitioning and the results shown in Table XIV. The ligands are highly specific for L-selectin.
(§3) *Kds were determined at room temperature.
In turn, B21 showed a Kd of 39 nM.

The next series deals with T3, P-selectin (PS-Rg). The experiment in a line: filter; room temp, Ca/Mg buffer. The following applies: tags: lectin, EGF and first two CRD domains fused to human IgG1 Fc (provided by A. Varki); chain copies: 2 (dimeric Fc chimera, inferred). As for the experimental part:
as §1, with “RNA” for “The specifically eluted fraction was processed for use in the following round. Fractions eluted from immobilized WGA were heated at 90° C. for 5 minutes in 1% SDS, 2% β-mercaptoethanol and extracted with phenol/chloroform. RNA”
as §2, §3
B21 gave an equilibrium dissociation constant (Kd) of 420 nM.

Source of the values: US6001988, “High affinity nucleic acid ligands to lectins” (NeXstar Pharmaceuticals, Inc.).
